Where no end group is shown, it is not given here.
These binders were tested against soluble I-A^b-3R, mouse MHC-II protein (recombinant I-A^b) (mouse) (assay: fluorescence polarisation; competition: 100 nM I-A^b-3R (3R cut off by thrombin, 1 U/ug), 25 nM Alexa488-labeled CLIP probe peptide, test peptide from 100 uM in 5-fold dilutions, 0.5 uM HLA-DM, read after 72 h at 37 C; 100 mM sodium citrate, 50 mM NaCl, 0.1% octyl glucoside, 5 mM EDTA, 1 mM DTT; three independent experiments, mean and SD).

Row | Binder | IC50 [µM]
1 | YSMGMHTYQVG [… (Cathepsin S peptide)] | 74.1
2 | AGTGVDNVDLEAATR (not fully specified) [… (D-3-phosphoglycerate dehydrogenase peptide)] | 57.5
3 | IRRYGVSQPDAVAAWK (not fully specified) [… (Alpha-N-acetylglucosaminidase peptide)] | 0.249
4 | NDWTVDHPQTLFAWEG [… (B-cell receptor CD22 peptide)] | 0.445

Results, then the binder that gave them:

Row | IC50 [µM] | Binder
5 | 0.152 | QVLSWSSPVGSRTLA [… (Protein Siglecg peptide)]
6 | 2.42 | AQRAGYKAAIVHNVDS [… (E3 ubiquitin-protein ligase RNF13 peptide)]
7 | 54.4 | LNLPTGIPIVYEL (not fully specified) [… (Phosphoglycerate mutase 2 peptide)]
